Reference: paper PMC11032447

Legend:
Assay in all cases: ITC; secretagogin construct in the cell (10-100 µM), partner in the syringe (80-1500 µM); 25 mM HEPES pH 8.0, 150 mM NaCl, 2 mM CaCl2; 20 °C; MicroCal iTC200; single-site binding model
[1] = molecular target: mouse secretagogin (mouse) (UniProt Q91WD9)
[2] = molecular target: mouse secretagogin V233A (mouse) (UniProt Q91WD9)
[3] = molecular target: mouse secretagogin M229E (mouse) (UniProt Q91WD9)
[4] = molecular target: mouse secretagogin M229A (mouse) (UniProt Q91WD9)
Chain of mouse secretagogin M229A (mouse) (Q91WD9 whole entry M229A): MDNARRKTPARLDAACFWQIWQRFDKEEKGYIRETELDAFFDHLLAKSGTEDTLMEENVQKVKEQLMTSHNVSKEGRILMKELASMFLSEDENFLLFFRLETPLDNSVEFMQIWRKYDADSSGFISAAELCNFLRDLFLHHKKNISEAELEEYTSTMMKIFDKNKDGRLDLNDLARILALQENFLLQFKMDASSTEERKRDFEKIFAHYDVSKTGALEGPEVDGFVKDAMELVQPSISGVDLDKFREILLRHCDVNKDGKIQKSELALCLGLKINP

[5] = molecular target: mouse secretagogin L270A (mouse) (UniProt Q91WD9)
Chain of mouse secretagogin L270A (mouse) (Q91WD9 whole entry L270A): as the sequence (Q91WD9 whole entry M229A) above, with A229M, L270A counted along it

[6] = molecular target: mouse secretagogin R198A (mouse) (UniProt Q91WD9)
Chain of mouse secretagogin R198A (mouse) (Q91WD9 whole entry R198A): as the sequence (Q91WD9 whole entry M229A) above, with R198A, A229M counted along it

Chain of mouse secretagogin (mouse) (Q91WD9 whole entry): as the sequence (Q91WD9 whole entry M229A) above, with A229M counted along it
Chain of mouse secretagogin V233A (mouse) (Q91WD9 whole entry V233A): as the sequence (Q91WD9 whole entry M229A) above, with A229M, V233A counted along it
Chain of mouse secretagogin M229E (mouse) (Q91WD9 whole entry M229E): as the sequence (Q91WD9 whole entry M229A) above, with A229E counted along it

Row | Kd [1] [µM] | Kd [2] [µM] | Kd [3] [µM] | Kd [4] [µM] | Kd [5] [µM] | Kd [6] [µM] | Substance
1 | 6.67 |  |  |  |  |  | Ha helix of the Habc domain of mouse syntaxin-4, His6-tagged (from UniProt P70452 1-298) (domain or fragment)
2 |  | 0.125 | 5.21 | 1.62 | 16.2 | 0.808 | Hb helix of the Habc domain of mouse syntaxin-4, His6-tagged (domain or fragment)
3 | 14.1 |  |  |  |  |  | Habc domain of mouse syntaxin-4, His6-tagged (from UniProt P70452 1-298) (domain or fragment)
